Laboratory results reported in US20250034594A1, “RNA-GUIDED GENOME RECOMBINEERING AT KILOBASE SCALE” (THE BOARD OF TRUSTEES OF THE LELAND STANFORD JUNIOR …, priority 2021, published 2025).

Assays:
Type in all cases: cell-based
gene editing with dCas9 = assay: Screen of 322 new SSAP proteins, gene editing activity with dCas9 (Table 5); design: dCas9 with SSAP activity: scale not given here
How it was run: (§1)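 First, 322 new single-strand annealing proteins are identified from sequences. Next they are synthesized. Finally each is assayed for editing in combination with Cas9 and, separately, dCas9.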

gene editing with Cas9 = assay: Screen of 322 new SSAP proteins, gene editing activity with Cas9 (Table 5); design: Cas9 with SSAP activity: scale not given here
How it was run: as §1

[1] = test system: gene editing with Cas9 and dCas9; assay: Screen of 322 new SSAP proteins, activity across all experiments (Cas9 and dCas9, Table 5); design: scale not given here
How it was run: as §1

B1: SSAP_242: SEQ ID NO: 411; Lactococcus sp. S-13 (protein, listed as Lactococcus sp.)
chain: SNQITKTQQTLKSPEVKAKFEEVLGKKADGFVASLLSVVGNSNLKTVEANSVMTAAMKAATLDLPIEPSLGFAYVIPYGREAQFQIGYKGFIQLALRSGQLTGLNCGIVYESQFVSYDPLFEELELDFTQQASGDAVGYFASMKLANGFKKVTYWSKEQVLAHKKKFVKSANGPWRDHFDAMAQKTVLKAMLTKYAPASIESKMIQTAITEDDSERFENAKDVTPDEPVISIDEPVTSEVSQNESSAESQEQFPEDEVEELFPIGKS
dCas9 with SSAP activity (gene editing with dCas9): 3.640 | dCas9 with SSAP activity (normalized) (gene editing with dCas9): 2.062 | Cas9 with SSAP activity (gene editing with Cas9): 2.358 | Cas9 with SSAP activity (normalized) (gene editing with Cas9): 1.579 | Activity across all experiments [1]: 2.999

B2: SSAP_257: SEQ ID NO: 426; Listeria (multispecies) (protein, listed as Listeria sp.)
chain: ATNDELKNQLANKQNGGQVASAQSLDLKGLLEAPTMRKKFEKVLDKKAPQFLTSLLNLYNGDDYLQKTDPMTVVTSAMVAATLDLPIDKNLGYAWIVPYKGRAQFQLGYKGYIQLALRSGQYKSINVIEVREGELLKWNRLTEEIELDLDNNTSEKVVGYCGYFQLINGFEKTVYWTRKEIEAHKQKFSKSDFGWKKDYDAMAKKTVLRNMLSKWGILSIDMQTAVTEDEAEPRERKDVTEDESIPDIIDAPITPSDTLEAGSEVQGSMI
dCas9 with SSAP activity (gene editing with dCas9): −2.649 | dCas9 with SSAP activity (normalized) (gene editing with dCas9): −1.189 | Cas9 with SSAP activity (gene editing with Cas9): 0.216 | Cas9 with SSAP activity (normalized) (gene editing with Cas9): 0.821 | Activity across all experiments [1]: −1.217

B3: SSAP_145: SEQ ID NO: 314; Roseburia sp. CAG: 182 (protein, listed as Roseburia sp.)
chain: DVKEELAKMAEEKPTKKLTKSMSIQDMIKVIEPEIKKALPSVLTPERFTRMALSAINNTPKLAECSQISFLAALMNAAQLGLEPNTPLGQAYLIPFQNKGKLECQFQIGYKGIIELVYRNPLIQTIQAQVVYENDEFEYELGLNSRLFHRPALYDRGETVLFYALFKMSNGGYGFEVLSKQDMDAYAKRYSKGISSEYSPWKSNYEEMAKKTMIKKVLKYAPIRTDFQKAVSMDESIKKELSVDMSEVSNENIIDMEEITQEEE
dCas9 with SSAP activity (gene editing with dCas9): −2.440 | dCas9 with SSAP activity (normalized) (gene editing with dCas9): −0.309 | Cas9 with SSAP activity (gene editing with Cas9): −0.211 | Cas9 with SSAP activity (normalized) (gene editing with Cas9): −0.214 | Activity across all experiments [1]: −1.325

B4: SSAP_319: SEQ ID NO: 488; Helicobacter trogontum (protein, listed as Helicobacter trogontum)
chain: SNITTIQRKNEALALLENKEIQERLCALCGNEASKDKFKASLLNIALDSNLSACSMQSIVKASLDIAGLKLSLNKNLGKAYIVPRKVKIGNDYITEARIDIGYKGWLELAKRSKLSVKAHSVFDCDDFVYSVDGVDEYMKLTPNFELRQEHDSAWVKEHLKGIVVGIKDLKSGDSEVKFVSKGTLLKIMQKNDSVKNGKYSAYTDWLHEMLLAKAIKSCLSKTAMSEDTFYLIISNNKLFI
dCas9 with SSAP activity (gene editing with dCas9): −2.508 | dCas9 with SSAP activity (normalized) (gene editing with dCas9): −0.276 | Cas9 with SSAP activity (gene editing with Cas9): 0.742 | Cas9 with SSAP activity (normalized) (gene editing with Cas9): 1.773 | Activity across all experiments [1]: −0.883

B5: SSAP_54: SEQ ID NO: 223; Bet Pseudomonas phage PS-1 (protein, listed as Pseudomonas sp.)
chain: SNVATIKPSSLSARMAERFGVDPNEMMATLKATAFKGQVSDAQMQALLIVADQYGLNPWTKEIYAFPDKGGIVPVVGVDGWSRIINENGAFDGMDFQQDDESCTCIIYRKDRNHPIKVTEWMAECKRNTQPWQSHPKRMLRHKAMIQCARLAFGYTGIFDEDEAQRIVEKDVTPAVNEPDITPALEAIKNASSMEELHAAFKAAWNQHPSARARLTAVKDERKKALSEPIEGELVENEDGPAQQ
dCas9 with SSAP activity (gene editing with dCas9): −2.517 | dCas9 with SSAP activity (normalized) (gene editing with dCas9): −0.565 | Cas9 with SSAP activity (gene editing with Cas9): −0.011 | Cas9 with SSAP activity (normalized) (gene editing with Cas9): −0.061 | Activity across all experiments [1]: −1.264

B6: SSAP_274: SEQ ID NO: 443; Clostridium liquoris (protein, listed as Clostridium liquoris)
chain: TTASELKNQLATRKETGVGSAGNTVKGLLESPAIKKRFEEVLKQRAPQYMSSIVNLVNGDANLKKCDQMSVIASCMVAATLDLPVDKNLGYAWVVPYGNKAQFQLGYKGYVQLALRTGQYKSINVIEIHEGELIEWNPLTEELRIDFEKKKSDAIIGYAGYFELINGFRKSTYWTKEQITKHKNKFSKSDFGWKKDFDAMAKKTVLRNMLSKWGILSIEMQNAYTADQETIKSEVLETGNIKENVEYVEADFDVDFEGTPFEEGVTNE
dCas9 with SSAP activity (gene editing with dCas9): −2.423 | dCas9 with SSAP activity (normalized) (gene editing with dCas9): −0.328 | Cas9 with SSAP activity (gene editing with Cas9): 0.280 | Cas9 with SSAP activity (normalized) (gene editing with Cas9): 0.259 | Activity across all experiments [1]: −1.072

B7: SSAP_314: SEQ ID NO: 483; Ferrimonas kyonanensis (protein, listed as Ferrimonas kyonanensis)
chain: NQMINEPDFVTALKDSRETYIDLTQNGGFNLNYGLEAGWAHQQIEASRYQNLDLTCSEPGSIMQAFCEAARLGLSFDPRKKHIYLMGQKDVQSGRTITILYVGYKGMIALACRTGFMIGGHADLVFEEDTFTYRSGTQLPVHEHDGRPNHERGRLKCGYVVAHQPGGMVKTLLVPKEVLLEAASNGLNAGGSNNTWCGPYMEMMYQKTCWRYAFNAWYSELEAVGMTQAQLESATTAVSYQ
dCas9 with SSAP activity (gene editing with dCas9): −2.593 | dCas9 with SSAP activity (normalized) (gene editing with dCas9): −0.657 | Cas9 with SSAP activity (gene editing with Cas9): 0.114 | Cas9 with SSAP activity (normalized) (gene editing with Cas9): 0.106 | Activity across all experiments [1]: −1.240

B8: SSAP_129: SEQ ID NO: 298; Lacrimispora indolis (protein, listed as Lacrimispora indolis)
chain: SDVKQELEKRAAGGGGQSQSVRLTKNMTIVDMVKALEPEIKRALPSILTPERFTRMALSAINNTPKLGECTPMSFIAALMNAAQLGLEPNTPLGQAYLIPYKNKGVLECQFQLGYRGLIDLAYRNERMQSVEAQVVYENDEFSYELGLHPSLIHRPSFDEPGEIRAFYAIFRLDNGGFRFEVMSKSYVDAYAARYSKAFTSDFSPWKSNYEGMAKKTVIKQLLKYAPMKSEFQKAVTMDETIKTELSVDMSEVSNQEVIDRELTEQVA
dCas9 with SSAP activity (gene editing with dCas9): −2.431 | dCas9 with SSAP activity (normalized) (gene editing with dCas9): −0.313 | Cas9 with SSAP activity (gene editing with Cas9): 0.031 | Cas9 with SSAP activity (normalized) (gene editing with Cas9): 0.019 | Activity across all experiments [1]: −1.200

B9: SSAP_81: SEQ ID NO: 250 (protein)
chain: TDVKQELERKVGKQDSTAVRLTKNMSIPDMIKALEPEIRRALPAVLTPERFLRMALSAVNNTPKLAECTPMSFIAAMMNAAQLGLEPNTPLGQAYLIPYKNKNQLECQFQIGYKGIIDLAYRTGQMQMIQAHAVHEFDDFEYEYGLNPKLIHRPGDGNRGEITYFYGLFKLVNGGFGFEVMNREAMEAFAQQYSQSYGSQYSPWVKNFEDMAKKTVIKKALKYGPVKAEFQKAISMDETIKTEIAVDMTEVQNEESE
dCas9 with SSAP activity (gene editing with dCas9): −2.360 | dCas9 with SSAP activity (normalized) (gene editing with dCas9): −0.367 | Cas9 with SSAP activity (gene editing with Cas9): −2.257 | Cas9 with SSAP activity (normalized) (gene editing with Cas9): −0.341 | Activity across all experiments [1]: −2.308
